In patent US20220348648A1 (published 2022) one finds Kd data, which are given here for 4 molecules.

As usually defined, the Kd is the equilibrium constant for the complex coming apart.

Where two headings read alike, the source gives them in different places.

Common to all, as to experiment: BLI (Octet HTX)
(Biolayer interferometry detects binding as a change in optical thickness at a sensor tip.)

Test [1] concerns the target T1, Recombinant Human DLL3 Protein (amino acids Ala27-Ala479, Cat #9749-DL, R&D Systems) (UniProt Q9NYJ7 27-479).
T1 chain: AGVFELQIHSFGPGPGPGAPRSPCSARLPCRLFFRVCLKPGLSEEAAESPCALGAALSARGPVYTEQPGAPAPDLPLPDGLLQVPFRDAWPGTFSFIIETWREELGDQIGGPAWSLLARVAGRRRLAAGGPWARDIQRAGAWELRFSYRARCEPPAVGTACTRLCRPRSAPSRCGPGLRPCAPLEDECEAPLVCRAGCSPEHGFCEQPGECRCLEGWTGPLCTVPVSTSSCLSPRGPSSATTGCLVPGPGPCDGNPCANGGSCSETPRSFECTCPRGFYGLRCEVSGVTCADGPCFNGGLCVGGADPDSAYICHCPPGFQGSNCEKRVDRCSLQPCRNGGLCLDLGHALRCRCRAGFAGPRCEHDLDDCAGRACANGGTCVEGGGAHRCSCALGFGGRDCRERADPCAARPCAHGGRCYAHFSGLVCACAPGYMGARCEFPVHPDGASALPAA

The target in test [2] is T1, Recombinant Human DLL3 Protein (amino …).
Test [3] has the same target.

B1: 10-O18-A (antibody, V domains shown)
VH: QVQLQESGPGLVKPSETLSLTCTVSGGSINSYYWSWIRQPPGKGLEWIGYIFYSGITNYNPSLKSRVTISLDTSKNQFSLKLSSVTAADTAVYYCARIGVAGFYFDYWGQGTLVTVSS
VL: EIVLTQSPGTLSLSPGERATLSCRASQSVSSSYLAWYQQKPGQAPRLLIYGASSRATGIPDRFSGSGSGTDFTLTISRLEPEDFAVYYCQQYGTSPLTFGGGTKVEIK
In the case of B1, the Kd amounted to 0.62 nM in test [1] and 0.602 nM in test [2].

B2: 6-G23-F (antibody, V domains shown)
VH: QVQLVQSGAEVKKPGASVKVSCKASGYTFTSYYIHWVRQAPGQGLEWMGIIDPSDGSTNYAQKFQGRVTMTRDTSTSTVYMELSSLRSEDTAVYYCARDREYNYYGLDVWGQGTTVTVSS
VL: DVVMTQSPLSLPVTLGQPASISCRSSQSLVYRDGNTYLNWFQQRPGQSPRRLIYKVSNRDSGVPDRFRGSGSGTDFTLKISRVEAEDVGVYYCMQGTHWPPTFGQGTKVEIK
Regarding B2, the Kd in test [1] and in test [3] was 0.16 nM throughout.

B3: 2-C8-A (antibody, V domains shown)
VH: EVQLVESGGGLVQPGGSQRLSCAASGFTFSSYWMNWVRQAPGKGLEWVANIKEDGSEKYYVDSVKGRFTISRDNAKNSLYLQMNSLRAEDTAVYYCARDPGWAPFDYWGQGTLVTVSS
VL: DIQMSQSPSSLSASVGDRVTITCRASQGISNYLAWFQQKPGKAPKSLIYAASSLQSGVPSKFSGSGSGTDFTLAISSLQPEDFATYYCQQYNSFPYTFGQGTTLEIK
For the molecule B3, the Kd in test [1] and in test [2] was 0.668 nM in each case.

B4: 7-I1-B (antibody, V domains shown)
VH: EVQLVESGGGLVKPGGSLRLSCAASGFTFSNTWMSWVRQAPGKGLEWVGRIKSKSDGGTTDYAAPVKGRFTISRDDSKNTLYLQMNSLKTEDTAVYYCTQYYWNSFDYWGQGTLVTVSS
VL: not shown
For the molecule B4, the values for the Kd in test [1] and in test [3] were 0.68 nM and 0.686 nM, respectively.
